Assay results as given in paper PMC11681983.

Experiments:
VEGF [1] = biological target: VEGF (UniProt P15692)
VEGF [2] = biological target: VEGF (UniProt P15692); test: SPR; Biacore, n = 3
VEGF [3] = biological target: VEGF (UniProt P15692); test: ELISA; direct binding ELISA to IL-17A or VEGF, measured in duplicate, n = 2; who was coated is not told

Chain of VEGF (P15692 whole entry): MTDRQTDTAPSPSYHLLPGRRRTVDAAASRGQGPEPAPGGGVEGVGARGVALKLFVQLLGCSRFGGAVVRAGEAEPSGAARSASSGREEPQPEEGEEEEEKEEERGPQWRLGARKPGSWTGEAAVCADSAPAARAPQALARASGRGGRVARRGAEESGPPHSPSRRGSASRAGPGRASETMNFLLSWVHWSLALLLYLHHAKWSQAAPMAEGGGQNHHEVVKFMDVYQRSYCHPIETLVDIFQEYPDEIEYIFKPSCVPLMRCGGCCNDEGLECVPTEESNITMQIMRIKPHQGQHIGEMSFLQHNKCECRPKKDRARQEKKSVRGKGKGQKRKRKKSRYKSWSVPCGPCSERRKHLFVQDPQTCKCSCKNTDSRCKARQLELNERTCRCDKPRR

luciferase signal of KDR/NFAT-RE HEK293 reporter cells with 30 ng/mL VEGF; blocks signalling of VEGF through KDR (VEGF [1]): 0.26 nM | Kd (VEGF [2]): 0.011 nM | EC50 (VEGF [3]): 0.37 nM
B1: bispecific fusion protein 17V05 (bispecific antibody, V domains shown)
VH: EVQLVESGGGLVQPGGSLRLSCAASGFTFSSFDMSWGRQAPGKRLEWVAFMSSGGSTYYPDSVKGRFTISRDNSKNTLYLQMNSLRAEDTAVYYCARGERYGSYWGQGTLVTVSS
VL: DIQMTQSPSSLSASVGDRVTITCKASDHINNWLAWYQQKPGKAPKLLISGATSLETGVPSRFSGSGSGTDYTLTISSLQPEDFATYYCQQYWSTPFTFGSGTKLEIK
